Laboratory results from patent publication EP2857035B1 (Survac ApS, dated 2017).

Assays:
HLA-A3 = molecular target: T1, HLA-A3 (human); experiment: assembly assay, TAP-deficient cell lysate
T1 construct: MHC class I molecule from cell lysate; immunoprecipitated with mAb W6/32; also called HLA-A*0301

HLA-A1 = molecular target: T2, HLA-A1 (human); experiment: assembly assay, TAP-deficient cell lysate
T2 construct: MHC class I molecule; also called HLA-A*0101

HLA-A2 [1] = molecular target: T3, HLA-A2 (human); experiment: assembly assay, T2 cell lysate
T3 construct: MHC class I molecule without added peptide, from cell lysate; stably folded molecules immunoprecipitated with a conformation-dependent antibody; also called HLA-A*0201; HLA A*0201

HLA-A2 [2] = molecular target: T3, HLA-A2; experiment: assembly assay, TAP-deficient cell lysate
HLA-A11 = molecular target: T4, HLA-A11 (human); experiment: assembly assay, TAP-deficient cell lysate
T4 construct: MHC class I molecule from cell lysate; immunoprecipitated with mAb W6/32; also called HLA-A*1101

HLA-B35 = HLA-B35 (human); experiment: assembly assay, T2-B35 cell lysate, W6/32 IP, IEF gel

FLKDHRISTK [Sur13K9]: no binding (HLA-A3).

MAEAGFIHC [Sur38-46]: no binding (tested: peptide tested at 40, 4, 0.4, 0.04 µM) (HLA-A1).

ETAKKVRRAI (also called Survivin126-135) [Sur10]: no binding (HLA-A2 [1]).

KLDRERAKNKI [Sur103-113]: no binding (HLA-A2 [2]).

FLKLDRERAK [Sur 101-110]: no binding (HLA-A3); no binding (tested: peptide tested at 40, 4, 0.4, 0.04 µM) (HLA-A11).

PTIRRKNLRK (the text says nothing of its origin) [SurEx3-A3-2]: no binding (HLA-A3).

TAKKVRRAI (also called Survivin127-135) [Sur7]: no binding (HLA-A2 [1]).

In the case of TPERMAEAGF (also called Survivin34-43) [Sur34-43], the binding result (HLA-A1) is reported as “no binding (tested: peptide tested at 40, 4, 0.4, 0.04 µM)” and the C50 (HLA-B35) is reported as over 100 µM.

TPERMAEAGY [sur34Y9]: no binding (tested: peptide tested at 40, 4, 0.4, 0.04 µM) (HLA-A1).

DLAQCFFCF [Sur 53-61]: no binding (HLA-A3); no binding (tested: peptide tested at 40, 4, 0.4, 0.04 µM) (HLA-A11).

DLAQCFFCK [Sur53K9]: no binding (HLA-A3).

KLDRERAKNK [Sur 103-112]: no binding (HLA-A3); no binding (tested: peptide tested at 40, 4, 0.4, 0.04 µM) (HLA-A11).

RAIEQLAAM (also called Survivin133-141) [Sur2]: no binding (HLA-A2 [1]).

LAQCFFCFKEL [Sur54-64]: no binding (HLA-A2 [2]).

CAFLSVKKQF [Sur 84-93]: no binding (HLA-A3); no binding (tested: peptide tested at 40, 4, 0.4, 0.04 µM) (HLA-A11).

LKDHRISTF [Sur14-22]: no binding (tested: peptide tested at 40, 4, 0.4, 0.04 µM) (HLA-A1).

LKDHRISTY [sur14Y9]: no binding (tested: peptide tested at 40, 4, 0.4, 0.04 µM) (HLA-A1).

IAKETNNKKK [Sur 113-122]: no binding (HLA-A3); no binding (tested: peptide tested at 40, 4, 0.4, 0.04 µM) (HLA-A11).

RISTFKNWPF [Sur 18-27]: no binding (HLA-A3); no binding (tested: peptide tested at 40, 4, 0.4, 0.04 µM) (HLA-A11).

PTLPPAWQPFL [Sur4-14]: no binding (HLA-A2 [2]).

SVKKQFEELTL [Sur88-98]: no binding (HLA-A2 [2]).

RITREEHKK (the text says nothing of its origin) [Sur2b-A3-1]: no binding (HLA-A3).

For EPDLAQCFY [Sur51Y9], the C50 (HLA-B35) was 1.5 µM.

In the case of EPDLAQCFF (also called Survivin51-59) [Sur51-59], the binding result (HLA-A1) is reported as “no binding (tested: peptide tested at 40, 4, 0.4, 0.04 µM)” and the C50 (HLA-B35) is reported as 13 µM.

PTENEPDLAQ [Sur47-56]: no binding (tested: peptide tested at 40, 4, 0.4, 0.04 µM) (HLA-A1).

SVKKQFEEL (also called Survivin88-96) [Sur5]: no binding (HLA-A2 [1]).

CPTENEPDY [Sur46Y9] gave a C50 (HLA-B35) of 4 µM.

FEELTLGEY [sur93Y9]: no binding (tested: peptide tested at 40, 4, 0.4, 0.04 µM) (HLA-A1).

LPPAWQPFL (also called Survivin6-14) [Sur6-14] was tested, and the C50 (HLA-B35) was over 100 µM.

CPTENEPDL (also called Survivin46-54) [Sur46-54] gave a C50 (HLA-B35) of 20 µM.

ENEPDLAQCF [Sur49-58]: no binding (tested: peptide tested at 40, 4, 0.4, 0.04 µM) (HLA-A1).

ENEPDLAQCY [sur49Y9]: no binding (tested: peptide tested at 40, 4, 0.4, 0.04 µM) (HLA-A1).

ELTLGEFLK [Sur 95-103]: no binding (tested: peptide tested at 40, 4, 0.4, 0.04 µM) (HLA-A11).

QFEELTLGEY [sur92Y9]: no binding (tested: peptide tested at 40, 4, 0.4, 0.04 µM) (HLA-A1).
